Data on two proteins can be found in PMC3656419 (Journal of molecular biology, 2008).

Series [1] deals with the molecule itself. As to the kind of experiment: SEC.
Series [2] deals with the molecule itself. Kind of series: crystal structure.
Series [3] deals with the molecule itself. As to the kind of experiment: AUC.

B1: native EcMenD (Escherichia coli 2-succinyl-5-enolpyruvyl-6-hydroxy-3-cyclohexadiene-1-carboxylate synthase), N-terminal hexahistidine-tagged (enzyme, E. coli (K12), UniProt P17109 1-556, looked up)
chain: MSVSAFNRRWAAVILEALTRHGVRHICIAPGSRSTPLTLAAAENSAFIHHTHFDERGLGHLALGLAKVSKQPVAVIVTSGTAVANLYPALIEAGLTGEKLILLTADRPPELIDCGANQAIRQPGMFASHPTHSISLPRPTQDIPARWLVSTIDHALGTLHAGGVHINCPFAEPLYGEMDDTGLSWQQRLGDWWQDDKPWLREAPRLESEKQRDWFFWRQKRGVVVAGRMSAEEGKKVALWAQTLGWPLIGDVLSQTGQPLPCADLWLGNAKATSELQQAQIVVQLGSSLTGKRLLQWQASCEPEEYWIVDDIEGRLDPAHHRGRRLIANIADWLELHPAEKRQPWCVEIPRLAEQAMQAVIARRDAFGEAQLAHRICDYLPEQGQLFVGNSLVVRLIDALSQLPAGYPVYSNRGASGIDGLLSTAAGVQRASGKPTLAIVGDLSALYDLNALALLRQVSAPLVLIVVNNNGGQIFSLLPTPQSERERFYLMPQNVHFEHAAAMFELKYHRPQNWQELETAFADAWRTPTTTVIEMVVNDTDGAQTLQQLLAQVSHL
As to B1, the “stoichiometry N” value in series [1] came out at 2.

B2: SeMet EcMenD (selenomethionine derivative of Escherichia coli MenD, histidine tag removed by proteolysis) (enzyme, E. coli (K12))
chain: GHMSVSAFNRRWAAVILEALTRHGVRHICIAPGSRSTPLTLAAAENSAFIHHTHFDERGLGHLALGLAKVSKQPVAVIVTSGTAVANLYPALIEAGLTGEKLILLTADRPPELIDCGANQAIRQPGMFASHPTHSISLPRPTQDIPARWLVSTIDHALGTLHAGGVHINCPFAEPLYGEMDDTGLSWQQRLGDWWQDDKPWLREAPRLESEKQRDWFFWRQKRGVVVAGRMSAEEGKKVALWAQTLGWPLIGDVLSQTGQPLPCADLWLGNAKATSELQQAQIVVQLGSSLTGKRLLQWQASCEPEEYWIVDDIEGRLDPAHHRGRRLIANIADWLELHPAEKRQPWCVEIPRLAEQAMQAVIARRDAFGEAQLAHRICDYLPEQGQLFVGNSLVVRLIDALSQLPAGYPVYSNRGASGIDGLLSTAAGVQRASGKPTLAIVGDLSALYDLNALALLRQVSAPLVLIVVNNNGGQIFSLLPTPQSERERFYLMPQNVHFEHAAAMFELKYHRPQNWQELETAFADAWRTPTTTVIEMVVNDTDGAQTLQQLLAQVSHL
modifications: selenomethionine in place of methionine (full incorporation of SeMet)
Consider B2, for which the “stoichiometry N” value in series [2] was found to be 4; in series [3], 3; in series [1], 2.
